Laboratory results reported in publication PMC10988774 (Journal of molecular biology, 2023).

Molecular target: T1, p65 La module, LaMod(108–355) (Tetrahymena thermophila, UniProt W7X6T2 108-355)
T1 sequence (looked up): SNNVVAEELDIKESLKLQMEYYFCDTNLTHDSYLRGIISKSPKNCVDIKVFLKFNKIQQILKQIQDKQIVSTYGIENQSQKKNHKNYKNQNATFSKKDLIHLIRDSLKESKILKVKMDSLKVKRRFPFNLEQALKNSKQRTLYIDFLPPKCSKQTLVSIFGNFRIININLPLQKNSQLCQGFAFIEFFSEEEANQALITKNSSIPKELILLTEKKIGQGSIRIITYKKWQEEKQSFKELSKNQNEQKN
Experiment: NMR titration

B1: p65 N-terminal domain, NTD (residues 1–109) (domain or fragment, Tetrahymena thermophila, UniProt W7X6T2 1-109, looked up)
chain: MDEYLENTNLEELEQECFMEDYQHEDVVEQENHQVDANDIYENQQMNDESQLNQDVKISQQKEQAVEMIEEQQQNNQDKFKQFQDCMAHITELNFKRNYQNLTEQSSSN
  binding result: binds
